Reference: article PMC3597591

Target: 14-3-3η (UniProt P68511)
Assay: GST pull-down from cell lysate
Settings: reference: lysate with phosphatase inhibitors (PhosStop); sites S2845

Substance: Bassoon Bsn28, 2715-3013 (from UniProt O88778) lysate treated with alkaline phosphatase
- binding against the reference: weaker
